B1: IgG2-CAMPATH-1H-E345R-K439E (antibody)
heavy: QVQLQESGPGLVRPSQTLSLTCTVSGFTFTDFYMNWVRQPPGRGLEWIGFIRDKAKGYTTEYNPSVKGRVTMLVDTSKNQFSLRLSSVTAADTAVYYCAREGHTAAPFDYWGQGSLVTVSSASTKGPSVFPLAPCSRSTSESTAALGCLVKDYFPEPVTVSWNSGALTSGVHTFPAVLQSSGLYSLSSVVTVPSSNFGTQTYTCNVDHKPSNTKVDKTVERKCCVECPPCPAPPVAGPSVFLFPPKPKDTLMISRTPEVTCVVVDVSHEDPEVQFNWYVDGVEVHNAKTKPREEQFNSTFRVVSVLTVVHQDWLNGKEYKCKVSNKGLPAPIEKTISKTKGQPRRPQVYTLPPSREEMTKNQVSLTCLVKGFYPSDIAVEWESNGQPENNYKTTPPMLDSDGSFFLYSKLTVDKSRWQQGNVFSCSVMHEALHNHYTQESLSLSPGK
light: not shown
B2: IgG2-CAMPATH-1H-E345R-K439E-N297A (antibody)
heavy: QVQLQESGPGLVRPSQTLSLTCTVSGFTFTDFYMNWVRQPPGRGLEWIGFIRDKAKGYTTEYNPSVKGRVTMLVDTSKNQFSLRLSSVTAADTAVYYCAREGHTAAPFDYWGQGSLVTVSSASTKGPSVFPLAPCSRSTSESTAALGCLVKDYFPEPVTVSWNSGALTSGVHTFPAVLQSSGLYSLSSVVTVPSSNFGTQTYTCNVDHKPSNTKVDKTVERKCCVECPPCPAPPVAGPSVFLFPPKPKDTLMISRTPEVTCVVVDVSHEDPEVQFNWYVDGVEVHNAKTKPREEQFASTFRVVSVLTVVHQDWLNGKEYKCKVSNKGLPAPIEKTISKTKGQPRRPQVYTLPPSREEMTKNQVSLTCLVKGFYPSDIAVEWESNGQPENNYKTTPPMLDSDGSFFLYSKLTVDKSRWQQGNVFSCSVMHEALHNHYTQESLSLSPGK
light: not shown
B3: IgG2-11B8-E345R-S440K (antibody)
heavy: EVQLVQSGGGLVHPGGSLRLSCTGSGFTFSYHAMHWVRQAPGKGLEWVSIIGTGGVTYYADSVKGRFTISRDNVKNSLYLQMNSLRAEDMAVYYCARDYYGAGSFYDGLYGMDVWGQGTTVTVSSASTKGPSVFPLAPCSRSTSESTAALGCLVKDYFPEPVTVSWNSGALTSGVHTFPAVLQSSGLYSLSSVVTVPSSNFGTQTYTCNVDHKPSNTKVDKTVERKCCVECPPCPAPPVAGPSVFLFPPKPKDTLMISRTPEVTCVVVDVSHEDPEVQFNWYVDGVEVHNAKTKPREEQFNSTFRVVSVLTVVHQDWLNGKEYKCKVSNKGLPAPIEKTISKTKGQPRRPQVYTLPPSREEMTKNQVSLTCLVKGFYPSDIAVEWESNGQPENNYKTTPPMLDSDGSFFLYSKLTVDKSRWQQGNVFSCSVMHEALHNHYTQKKLSLSPGK
light: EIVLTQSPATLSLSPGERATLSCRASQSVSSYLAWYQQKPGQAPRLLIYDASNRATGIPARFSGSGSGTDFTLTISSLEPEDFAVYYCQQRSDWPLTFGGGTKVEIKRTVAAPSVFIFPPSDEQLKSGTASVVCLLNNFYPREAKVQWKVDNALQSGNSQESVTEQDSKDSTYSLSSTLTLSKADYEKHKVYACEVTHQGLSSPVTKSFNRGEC
B4: IgG2-11B8-E345R-S440K-N297A (antibody)
heavy: EVQLVQSGGGLVHPGGSLRLSCTGSGFTFSYHAMHWVRQAPGKGLEWVSIIGTGGVTYYADSVKGRFTISRDNVKNSLYLQMNSLRAEDMAVYYCARDYYGAGSFYDGLYGMDVWGQGTTVTVSSASTKGPSVFPLAPCSRSTSESTAALGCLVKDYFPEPVTVSWNSGALTSGVHTFPAVLQSSGLYSLSSVVTVPSSNFGTQTYTCNVDHKPSNTKVDKTVERKCCVECPPCPAPPVAGPSVFLFPPKPKDTLMISRTPEVTCVVVDVSHEDPEVQFNWYVDGVEVHNAKTKPREEQFASTFRVVSVLTVVHQDWLNGKEYKCKVSNKGLPAPIEKTISKTKGQPRRPQVYTLPPSREEMTKNQVSLTCLVKGFYPSDIAVEWESNGQPENNYKTTPPMLDSDGSFFLYSKLTVDKSRWQQGNVFSCSVMHEALHNHYTQKKLSLSPGK
light: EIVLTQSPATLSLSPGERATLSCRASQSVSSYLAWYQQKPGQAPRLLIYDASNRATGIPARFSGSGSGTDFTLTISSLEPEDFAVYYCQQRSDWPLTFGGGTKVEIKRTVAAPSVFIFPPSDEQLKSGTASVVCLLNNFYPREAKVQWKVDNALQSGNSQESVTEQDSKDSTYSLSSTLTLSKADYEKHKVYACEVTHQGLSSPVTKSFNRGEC
B5: IgG4-CAMPATH-1H-E345R-K439E (antibody)
heavy: QVQLQESGPGLVRPSQTLSLTCTVSGFTFTDFYMNWVRQPPGRGLEWIGFIRDKAKGYTTEYNPSVKGRVTMLVDTSKNQFSLRLSSVTAADTAVYYCAREGHTAAPFDYWGQGSLVTVSSASTKGPSVFPLAPCSRSTSESTAALGCLVKDYFPEPVTVSWNSGALTSGVHTFPAVLQSSGLYSLSSVVTVPSSSLGTKTYTCNVDHKPSNTKVDKRVESKYGPPCPSCPAPEFLGGPSVFLFPPKPKDTLMISRTPEVTCVVVDVSQEDPEVQFNWYVDGVEVHNAKTKPREEQFNSTYRVVSVLTVLHQDWLNGKEYKCKVSNKGLPSSIEKTISKAKGQPRRPQVYTLPPSQEEMTKNQVSLTCLVKGFYPSDIAVEWESNGQPENNYKTTPPVLDSDGSFFLYSRLTVDKSRWQEGNVFSCSVMHEALHNHYTQESLSLSLGK
light: not shown
B6: IgG4-CAMPATH-1H-E345R-K439E-N297A (antibody)
heavy: QVQLQESGPGLVRPSQTLSLTCTVSGFTFTDFYMNWVRQPPGRGLEWIGFIRDKAKGYTTEYNPSVKGRVTMLVDTSKNQFSLRLSSVTAADTAVYYCAREGHTAAPFDYWGQGSLVTVSSASTKGPSVFPLAPCSRSTSESTAALGCLVKDYFPEPVTVSWNSGALTSGVHTFPAVLQSSGLYSLSSVVTVPSSSLGTKTYTCNVDHKPSNTKVDKRVESKYGPPCPSCPAPEFLGGPSVFLFPPKPKDTLMISRTPEVTCVVVDVSQEDPEVQFNWYVDGVEVHNAKTKPREEQFASTYRVVSVLTVLHQDWLNGKEYKCKVSNKGLPSSIEKTISKAKGQPRRPQVYTLPPSQEEMTKNQVSLTCLVKGFYPSDIAVEWESNGQPENNYKTTPPVLDSDGSFFLYSRLTVDKSRWQEGNVFSCSVMHEALHNHYTQESLSLSLGK
light: not shown
B7: IgG4-11B8-E345R-S440K (antibody)
heavy: EVQLVQSGGGLVHPGGSLRLSCTGSGFTFSYHAMHWVRQAPGKGLEWVSIIGTGGVTYYADSVKGRFTISRDNVKNSLYLQMNSLRAEDMAVYYCARDYYGAGSFYDGLYGMDVWGQGTTVTVSSASTKGPSVFPLAPCSRSTSESTAALGCLVKDYFPEPVTVSWNSGALTSGVHTFPAVLQSSGLYSLSSVVTVPSSSLGTKTYTCNVDHKPSNTKVDKRVESKYGPPCPSCPAPEFLGGPSVFLFPPKPKDTLMISRTPEVTCVVVDVSQEDPEVQFNWYVDGVEVHNAKTKPREEQFNSTYRVVSVLTVLHQDWLNGKEYKCKVSNKGLPSSIEKTISKAKGQPRRPQVYTLPPSQEEMTKNQVSLTCLVKGFYPSDIAVEWESNGQPENNYKTTPPVLDSDGSFFLYSRLTVDKSRWQEGNVFSCSVMHEALHNHYTQKKLSLSLGK
light: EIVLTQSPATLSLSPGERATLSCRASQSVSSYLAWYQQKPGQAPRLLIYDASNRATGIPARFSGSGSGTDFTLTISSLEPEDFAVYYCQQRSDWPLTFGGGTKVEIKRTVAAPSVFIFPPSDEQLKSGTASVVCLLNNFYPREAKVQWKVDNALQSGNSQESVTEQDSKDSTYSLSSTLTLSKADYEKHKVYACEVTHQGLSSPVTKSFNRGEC
B8: IgG4-11B8-E345R-S440K-N297A (antibody)
heavy: EVQLVQSGGGLVHPGGSLRLSCTGSGFTFSYHAMHWVRQAPGKGLEWVSIIGTGGVTYYADSVKGRFTISRDNVKNSLYLQMNSLRAEDMAVYYCARDYYGAGSFYDGLYGMDVWGQGTTVTVSSASTKGPSVFPLAPCSRSTSESTAALGCLVKDYFPEPVTVSWNSGALTSGVHTFPAVLQSSGLYSLSSVVTVPSSSLGTKTYTCNVDHKPSNTKVDKRVESKYGPPCPSCPAPEFLGGPSVFLFPPKPKDTLMISRTPEVTCVVVDVSQEDPEVQFNWYVDGVEVHNAKTKPREEQFASTYRVVSVLTVLHQDWLNGKEYKCKVSNKGLPSSIEKTISKAKGQPRRPQVYTLPPSQEEMTKNQVSLTCLVKGFYPSDIAVEWESNGQPENNYKTTPPVLDSDGSFFLYSRLTVDKSRWQEGNVFSCSVMHEALHNHYTQKKLSLSLGK
light: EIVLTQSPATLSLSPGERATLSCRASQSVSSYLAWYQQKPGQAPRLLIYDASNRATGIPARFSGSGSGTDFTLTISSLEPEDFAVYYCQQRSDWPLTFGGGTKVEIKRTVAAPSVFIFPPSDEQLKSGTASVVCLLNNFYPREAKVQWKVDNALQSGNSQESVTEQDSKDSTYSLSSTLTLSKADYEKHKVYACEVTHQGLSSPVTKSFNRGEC

From patent US20220411529A1 (Genmab, published 2022) come the findings set out here.

The test deals with FcγRIIIa (V158 high affinity allotype) (UniProt P08637 17-254, limits assumed). Kind of test: cell-based or functional assay.
Chain of FcγRIIIa (V158 high affinity allotype) (P08637 17-254 F176V limits assumed): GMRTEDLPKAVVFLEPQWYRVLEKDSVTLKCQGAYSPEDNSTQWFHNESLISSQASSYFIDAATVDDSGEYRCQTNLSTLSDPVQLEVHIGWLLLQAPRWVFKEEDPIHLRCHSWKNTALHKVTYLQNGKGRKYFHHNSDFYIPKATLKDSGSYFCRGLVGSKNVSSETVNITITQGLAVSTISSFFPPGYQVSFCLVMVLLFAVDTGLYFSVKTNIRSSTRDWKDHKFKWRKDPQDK
For B1, the “FcγRIIIa activation, reporter cell assay, relative AUC, single agent” value was < 5 % of the level induced by the positive control mixture.

For B2, the “FcγRIIIa activation, reporter cell assay, relative AUC, single agent” value is < 5 % of the level induced by the positive control mixture.

Turning to B3, the “FcγRIIIa activation, reporter cell assay, relative AUC, single agent” value was < 5 % of the level induced by the positive control mixture.

As to B4, the “FcγRIIIa activation, reporter cell assay, relative AUC, single agent” value was < 5 % of the level induced by the positive control mixture.

As for B5, the “FcγRIIIa activation, reporter cell assay, relative AUC, single agent” value was < 5 % of the level induced by the positive control mixture.

Take B6: the “FcγRIIIa activation, reporter cell assay, relative AUC, single agent” value is < 5 % of the level induced by the positive control mixture.

With B7, the “FcγRIIIa activation, reporter cell assay, relative AUC, single agent” value is < 5 % of the level induced by the positive control mixture.

In the case of B8, the “FcγRIIIa activation, reporter cell assay, relative AUC, single agent” value was < 5 % of the level induced by the positive control mixture.
